2 molecules from article PMC8141032 (Oncogene, 2021) can be followed below.

This test deals with recombinant Flag-tagged SNF5 (UniProt Q12824 1-385). Put plainly: pull-down.
Chain of recombinant Flag-tagged SNF5 (Q12824 whole entry): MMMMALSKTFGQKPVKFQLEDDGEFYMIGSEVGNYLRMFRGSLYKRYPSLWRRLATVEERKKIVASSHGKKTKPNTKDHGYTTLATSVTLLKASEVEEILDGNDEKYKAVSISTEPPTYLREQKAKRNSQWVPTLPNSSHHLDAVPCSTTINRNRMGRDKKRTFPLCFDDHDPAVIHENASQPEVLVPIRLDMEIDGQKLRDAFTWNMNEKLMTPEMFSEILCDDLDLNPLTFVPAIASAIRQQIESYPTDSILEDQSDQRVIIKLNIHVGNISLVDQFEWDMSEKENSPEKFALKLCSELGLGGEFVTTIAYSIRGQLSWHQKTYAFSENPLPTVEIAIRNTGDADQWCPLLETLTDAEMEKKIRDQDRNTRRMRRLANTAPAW

B1: recombinant SWIRM domain (amino acids 417–546 of BAF155) (domain or fragment)
chain: TAGGKEDEDPAKGDQSRSVDLGEDNVTEQTNHIIIPSYASWFDYNCIHVIERRALPEFFNGKNKSKTPEIYLAYRNFMIDTYRLNPQEYLTSTACRRNLTGDVCAVMRVHAFLEQWGLVNYQVDPESRPM
As to B1, the binding result is “binds”.

B2: recombinant Sumo-tagged SWIRM (amino acids 417–580 of BAF155) (domain or fragment)
chain: TAGGKEDEDPAKGDQSRSVDLGEDNVTEQTNHIIIPSYASWFDYNCIHVIERRALPEFFNGKNKSKTPEIYLAYRNFMIDTYRLNPQEYLTSTACRRNLTGDVCAVMRVHAFLEQWGLVNYQVDPESRPMAMGPPPTPHFNVLADTPSGLVPLHLRSPQVPAAQ
In the case of B2, the binding result was “binds”.
